Laboratory results from paper PMC9426509.

Biological target: Echovirus 18 (E18) mature (full) virus particle, strain HeB15-254 (echovirus 18 (strain HeB15-254))
Test: SPR; Biacore 3000, 25 C; biotinylated full E18 particles in PBS with Tween immobilised on streptavidin (SA) chips; FcRn or CD55 flowed at 31.25 nM to 2,000 nM; pH 7.4; 1:1 binding model

Q: Which Kd does the source give for “soluble ectodomain of human neonatal Fc receptor (FcRn): FCGRT (A16-L282) with B2M (from UniProt P61769 21-119) (complex)” here?
A: 343 nM
